A short description of this data set: yeast display, Sf9 membrane polyspecificity reagent, FACS + sequencing; frameworks hold sequencing errors. The gist of the method: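 In a synthetic yeast display library (Saccharomyces cerevisiae BJ5465), nanobody expression was induced with galactose for 36–48 hours. FACS gates were set low and high (top ~1%) using anti-HA fluorescence for expression and streptavidin fluorescence for binding of the Sf9 membrane reagent. Each polyreactivity label is drawn from the gate of origin.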
“QVQLVESGGGLDQAGGSLRLSCAASGSIFSYYAMGWYRQAPGKERELVAAITIRGGRTYYADSVKGRFTISRDNAKNTVYLQMNSLKPEDTAVYYCAADWLNSDPYNYWGQGTQVTVSS”: the “polyreactivity (PSR sort gate)” value is reported as “low polyreactivity”. Consider “QVQLVESGGGLDQAGGSLRLSCAASGSIFTYYAIGWYRQAPGKERELVADISQRGGSTYYADSVKGRFTISRDNAKNTVYLQMISLKPEDTAVYYCATRARYTWRAFEYWGQGTQVNVSS”, for which the “polyreactivity (PSR sort gate)” value is reported as “low polyreactivity”. With “QVQLVESGGGLDQAGGSLRLSCAASGSIFVIYAMGWYRQAPGKERELVAAIRFSTGSTYYADSVKGRFTISRDNAKNTVYLQMNSLKPEDTAVYYCAARTFKYGSYAYEYWGQGTQVTVSS” the entry was “high polyreactivity”. With “QVQLVESGGGLDQAGGSLRLSCAASGSIFVTNVMGGYRQAPGKERELVAAISSSGTRTYADSVKGRFTISRDNAKNTVYLQMNSLKTEDTAVYYCAKDYRVWVAATIAHDYWGQGTQVTVSS” the entry was “low polyreactivity”; with “QVQLVESGGGLDQAGGSLRLSCAASGSIFWAYVMGWYRQAPGKERELVARISSGGRTKYADSVKGRFTISRDNAKNTVYLQMNSLKPEDTAVYYCNADASSSPYTDRQYIGADDSWGHGTQVTVSS”, “low polyreactivity”; with “QVQLVESGGGLDQAGGSLRLSCAASGSIFYFNAMGWYRQAPGKARELVAAISTSGGSTYADSVKGRFTISRDNAKYTVYLQMNSLKPEDSAVYYFAADYLTSRSRTFDYWGQGTQVTVSS”, “low polyreactivity”.

As to “QVQLVESGGGLDQAGGSLRLSCAASGSIFYTNAMGWYRQAPRKERELVAAITSADSTYYADSVKGRFTISRDNANNTVYLQMNSLKPEDTAFYYCANDVYYYYRWYEYWGQGTQVTVSS”, the “polyreactivity (PSR sort gate)” value is reported as “high polyreactivity”.

Consider “QVQLVESGGGLDQAGGSLRLSCAASGSIILVNAMGWYRQAPGKERELVAAISWRGGRTRYADSVKGRFTISRDNAKNTVYLQMNSLKPEDTAVYYCAAAGRPVGPRYDYWGQGTQVTVSS”, for which the “polyreactivity (PSR sort gate)” value is recorded as “high polyreactivity”. For “QVQLVESGGGLDQAGGSLRLSCAASGSTFGTYAMGWYRQAPGKEWQLVADITGSGGSTYYADSVKGRFTISRDNAKNTVYLQMNSLKPEDTAVYYCAGEYGLGDDTAYGYWGQGTQGTVSS”, the “polyreactivity (PSR sort gate)” value was “low polyreactivity”. For “QVQLVESGGGLDQAGGSLRLSCAASGSTFKHNAMGWYRQAPGKERKLVAGISWGGSSTYYADSVKGRFTISRDNAKNTVYLQMNSLKPEDTAVYYCAKGGYRRYGYDYWGQGTQETVSS” the value was “low polyreactivity”; for “QVQLVESGGGLDQAGGSLRLSCAASGSTFPKYGMGWYRQSPGKDREFVARINWNGGGTYYADSVKGRFTISRDNAKNTVYLQMNSLKPEDTAVYYCAADYEYYYFWDYYWGQGTQVTVSS”, “low polyreactivity”.

As for “QVQLVESGGGLDQAGGSLRLSCAASGSTFRQNVKGWYRQAPGKERELVAAISKSGGSTYYADSVKGRFTISRDNAKNTVYLQMNSLKPEDTAVYYCATRQRQRVDNREYYYWGQGTQVTVSS”, the “polyreactivity (PSR sort gate)” value is “high polyreactivity”. For “QVQLVESGGGLDQAGGSLRLSCAASGSTFVGYAMGWYRQAPGKERELVAAISYSGGRTYYADSVKGRFTISRDNAKNTVYLQMNSLKPEDTAVYYCAALVGGSGWWGRDYWGQGTQVTVSS” the value was “high polyreactivity”; for “QVQLVESGGGLDQAGGSLRLSCAASGSTFVVNAMGWYRQAPGKERELVAAIRNSGSTTYADSVKGRFTISRDNAKYTVYLQMNSLKPEDTAVYYCATDFSATVTAVQINPYDYWGQGTQVTVSS”, “low polyreactivity”. Regarding “QVQLVESGGGLDQAGGSLRLSCAASGSTLGRNAMGWYRQAPGKERELVAAISSSSGRTYYADSVKGRFTISRDNAKNTVYLQMNSLKPEDTAVYYCAATHAVARPLEYDYWGQGTQVTVSS”, the “polyreactivity (PSR sort gate)” value was “low polyreactivity”. With “QVQLVESGGGLDQAGGSLRLSCAASGTFSRNAMGWYRQAPGKERELLADISGGRSTDYADSVKGRFTISRDNAKNTVYLQMNSLKPEDTAVYYCAAYGYLWWEMDYWGQGTQVTVSS” the entry was “high polyreactivity”. For “QVQLVESGGGLDQAGGSLRLSCAASGYTFFSNAMGWYRQAPGKERELVAAITFSGGSTYYADSVKGRFTISRDNAKNTVYLHMNSLKPEDTAVYYCATRYYYHYPRKHIYNYWGQGTQVTVSS” the value was “high polyreactivity”; for “QVQLVESGGGLDQAGGSLRLSCAASVSTFLVNTMGWYRQAPGKEREFVAAYADSVKGRFTISRDNAKNTVYLQMNSLKPEYTAVYYCNAGGSEIYRSPFDYWGQGTQVTVSS”, “low polyreactivity”; for “QVQLVESGGGLDQAGGSLRLSCADSGSIFVYYAMGWYRQAPGKERELVAAITTSGGSTYYADSVKGRFTISRDNAKNTVYLQMNSLKPEDTAVYYCAAELLAWYWSYSVPWPYDYWGQGTQVTVSS”, “low polyreactivity”. Take “QVQLVESGGGLDQAGGSLRLSCADSGYTFRAYAMGWYRQAPGKERELVAAITRSGTSTYYADSVKGRFTISRDNAKNTVYLQMNSLKPEDTAVYYCNVDVYLYAKEYDYWGQGTQVTVSS”: the “polyreactivity (PSR sort gate)” value was “high polyreactivity”. With “QVQLVESGGGLDQAGGSLRLSCASGRIFKKNAMGWYRQAPGNERELVAGITISGGRTYYADSVKGRFTISRDNAKNTVYLQMNSVKPEDTAVYYCNAGPDRRVSYYRLLDHWGQGTQVTVSS”, the “polyreactivity (PSR sort gate)” value is on record as “low polyreactivity”.

Consider “QVQLVESGGGLDQAGGSLRLSCPASGITFGYNDMGRYRQAPGKERELVAAINRGASTYYADSVKGRFTISRDNAKNTVYLQMYSLKPEDTAVYYCNADHRDTFIWVGLPHMDYWGQGTQVTVSS”, for which the “polyreactivity (PSR sort gate)” value was “low polyreactivity”. Regarding “QVQLVESGGGLDQAGGSLRLSSAASGRTVDIYAMGWYRQAPWKEWELVAAITRGGSTYYADSVKGRFTISRDNAKNTVYLQMNCLIPEDTAVYYCSAKLGTGYRRWYDYWGQGTQVTVSS”, the “polyreactivity (PSR sort gate)” value is given as “high polyreactivity”. For “QVQLVESGGGLDQAGGSRRLSCAASGSTFSSYAMGWYSQAPGQARELVAVITASGGSTYYADSVKGRFTISRDNPKNTVYLQMNSLKPDDTAVYYCAADPRSGDQYGKGDYWGQGTQVTGSS” the value was “low polyreactivity”; for “QVQLVESGGGLDQAGSSLSLSCDSSGRIFYGYAMGWYRQEPGKERELVAAISWRGGRTYYADSVKGRFTISRDNAKNTVYLQMNRLIPEDTAVYYCNKDFPPQGKLLNMYYWGQGTQVTLSS”, “high polyreactivity”. As to “QVQLVESGGGLDQAGVSLRLSCAASGRTFGGYAMGWYRQAPGKERELVASITSGGSTYYADSVKGRFTISRDNAKNTVYLQMNSLKPEDTAVYYCAADTYFETSTRAIPTNDYWGQGTQVTVSS”, the “polyreactivity (PSR sort gate)” value is given as “low polyreactivity”. With “QVQLVESGGGLDQARGSLRLSCAASGRIFELYAMGWYRQAPGKERELVAAITSSGGTTYYADSVKGRFTISRDNAKNTVYLQMNSLKPEDTAVYYCNTVYATRYDYWGQGTQVTVSS” the entry was “high polyreactivity”; with “QVQLVESGGGLDQARGSLRLSCAASGRTFRYYAMGWYRQAPWKERELVAAISSRGTRTYYADSVKGRFTISRDNAKNTVYLQMNSLKPEDTAVYYCATRYYQELSYDYWGQGTQVIVSS”, “high polyreactivity”. With “QVQLVESGGGLDQARGSLRLSCAASGSTFGRYAIGWYRQAHGKERELVAAINSRGGRTYYADSVKGRFTISRDNAKNTVYLQMNSLKPEVTAVYYCAAPTGPKGYYSDRGDSWGQGTQVTLSS” the entry was “low polyreactivity”; with “QVQLVESGGGLDQARGTLSLICAASGSIFRHYAMGWYRQAPWKERELVAAISGSGATTYYADSVKGRFTISRDNAKNTVYLQMKSLKPVDNAVYYCAARTTYITTWVYRHNYTYYYWGQGTQVTVSS”, “high polyreactivity”. For “QVQLVESGGGLDQEGGSLRLSCAASGSTFAVHVMGWYRHAPGKERELVATITYRDGRTYYADSVKGRFTISRDNANNTVYLQMNSLKPEDTAVYYCAADWYTTYDYWGQGTQVTVSS” the value was “low polyreactivity”.

In the case of “QVQLVESGGGLEQAGGSLRLSCAASGLIFRGYVMGWYRPAPGKERELVAAISRRGVNTYYADSVKGRFTISRDNSKNTVYLQMNSLKPEDTAVYYCAAETHVGWPAKFDYWGQGTQVTVSS”, the “polyreactivity (PSR sort gate)” value is “high polyreactivity”. For “QVQLVESGGGLEQAGGSLRLSCAASGLTFSAYVMAWYRLAPGKERELVAAISRRGGSTYYAYSVKGRFTISRDNAKNTVYLQMNSLKPEDTAVYYCAARKVAVRGYGYWGQGTQVTVSS”, the “polyreactivity (PSR sort gate)” value is recorded as “high polyreactivity”.

Regarding “QVQLVESGGGLFKAGGSLRLSSAASGSIFQNYDMGWYRQAPGNERELVAAISSSGDTYYADSVKGRFTISLDNAKNTVYLQMNSLKPEDTAVYYCAATYPYSLYYPYYGGDYDYWGQGTQVTVSS”, the “polyreactivity (PSR sort gate)” value is reported as “low polyreactivity”. For the sequence “QVQLVESGGGLFQAGGRLRLICAASGRIFTTNAMGWYRQAPGKERELVPAISRSGGSTNYADSVKGRFTISRDNAKNTVYLQMNSLIPEDTAVYYCAAVPTCNSFRSSFYYWGQGTQVTVSS”, the “polyreactivity (PSR sort gate)” value is “high polyreactivity”. For “QVQLVESGGGLFQAGGSHRLSCAASGSTFYYKAMGWYRQAPGKESELVARISRSGGSTYADSVKGRFTISRDNAKNNVYLQMNSLKPEDTAVYYCNKRGFYTPSVSYDYWGQGTQVTVSS” the value was “low polyreactivity”; for “QVQLVESGGGLFQAGGSLRLICAASGRIFDVNAMGWYRQAPGKERELVAAISWSGGITYYADSVKGRFTISRDNAKNTVYLQINSLKPEDTAVYYCAADKYQGYTFYQGYPGGGGYWGQGTQVTVSS”, “low polyreactivity”; for “QVQLVESGGGLFQAGGSLRLNCAASGSIFGSYAMVWYIQAPGKELELVAAITSDGITNYADSVKGRFTISRDNEKNTDYLQMNSLKPEDTAVYYCAAPGPLGGSDYWGQGTQVTVSS”, “low polyreactivity”. For “QVQLVESGGGLFQAGGSLRLSCAANGSIFDYYAMGWYRQSPGKERELVAAITRSGVRTYYADSVKGRFTISRDNAKNTVYLQMNSMKPEDTAVYYCGAVYYPLSFDNDYWGQGTQVTVSS” the value was “high polyreactivity”; for “QVQLVESGGGLFQAGGSLRLSCAASGFIFLVNAMGWYRPAPGKERELVAAISKSTGGTYYADSVKGRFTISRDNAKNTVYLQMYSLKPEDTAVYSCAADEVYPVQRDMDYWGQGTQETVSS”, “low polyreactivity”.

The values are drawn from the nanobody polyreactivity screen of Harvey et al. (2022).
